In US20160327558A1 one finds probe concentration sufficient to completely remove active MALT1 from the extracts and probe concentration sufficient to obtain a robust increase in active MALT1 data, which are given here for one molecule.

For experiment [1], the target named is active endogenous MALT1 (stimulated Jurkat T cells, stimulated primary human PBMCs and T cells, ABC DLBCL cells) (human) (UniProt Q9UDY8). Kind of experiment: probe 7 pulldown with streptavidin beads; supernatant tested with probe 6.
Experiment [2] has the same target. The experiment can be described thus: ELISA-type assay on streptavidin-coated plates, 2×10^6 Jurkat T cells. (ELISA stands for enzyme-linked immunosorbent assay.)

Primed or numbered codes have the meaning given here. The star is where a group is joined. AOMK(3) = acyloxymethyl ketone at C-terminal Arg; Biotin = O=C1N[C@H]2[C@H](CS[C@H]2CCCCC(=O)*)N1 A value given as a limit tells only on which side of the number the result lay.

B1: probe 7 (biotin-coupled; Ac-Lys(biotin)-LRSR-AOMK) (peptide)
peptide: Ac-K(Biotin)LRSR-{AOMK(3)}
In experiment [1], B1 yielded a probe concentration sufficient to completely remove active MALT1 from the extracts of 100 nM. For the same molecule, the probe concentration sufficient to obtain a robust increase in active MALT1 in experiment [2] is < 10 nM.
